Assay [1] deals with T1, mouse B7-H1 on J558 cells (mouse, UniProt Q9EP73 19-290).
T1 construct: whole, on cells
The assay is described as follows: FACS on J558 cells expressing mouse B7-H1. The procedure: (§1) The ability of the purified antibodies to bind to human B7-H1, B7-DC, mouse B7H1 and cynomolgus monkey B7-H1 was determined by FACS analysis. […] Mouse J558 cells expressing mouse B7-H1 were obtained from ATCC (catalog #TIB-6). Cells were resuspended in PBS containing 2% FBS (FACS buffer) and seeded at 50000 cells/well into V-bottomed plates. Anti-B7-H1 and isotype control antibodies diluted in FACS buffer were added at a final concentration of 5 μg/ml and plates were incubated for 1 h at 4° C. […] Mouse anti-human B7-DC (PD-L2) antibody (R&D systems cat #MAB1224, detected with goat anti-mouse Fc Cy5, Jackson Immunoresearch) was used as a positive control for B7-DC expression. PE-conjugated rat anti-mouse B7-H1 antibody (eBioscience, clone M1H5, detected with goat anti-rat Fc Cy5, Jackson Immunoresearch) was used as a positive control for mouse B7-H1 expression.

For assay [2], the target named is T2, human B7-DC on 293T cells (human, UniProt Q9BQ51 20-273).
T2 construct: whole, on cells; also called PD-L2
T2 sequence (looked up): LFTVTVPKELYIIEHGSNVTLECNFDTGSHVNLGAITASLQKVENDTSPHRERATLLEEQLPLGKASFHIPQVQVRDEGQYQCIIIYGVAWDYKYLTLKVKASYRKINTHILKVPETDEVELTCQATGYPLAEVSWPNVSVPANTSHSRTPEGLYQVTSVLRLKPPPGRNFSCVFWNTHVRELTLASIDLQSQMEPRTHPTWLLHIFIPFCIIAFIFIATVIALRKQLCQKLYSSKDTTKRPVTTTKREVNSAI
The assay is described as follows: FACS on 293T cells transfected with human B7-DC. The procedure: as §1

Assay [3] concerns the target T3, human B7-H1 expressed on cells (human, UniProt Q9NZQ7 19-290).
T3 construct: whole, on cells; also called PD-L1; huB7-H1
In words: FACS, 1 µg/ml antibody, anti-CD3-activated human T cells. The procedure: 96-well high binding plates were incubated with 100 μl/well of anti-CD3 antibody diluted at 1 ug/ml in PBS (OKT3 clone, eBioscience, catalog #160037) at 4 C overnight. Human T cells were isolated from frozen leukopack using T cell enrichment kit (StemCell Technologies, catalog #19051). Anti-CD3 mAb coated plates were washed with PBS and purified T cells were added in 200 ul of ICM media at 360000 cells/well and cultured for 72 hours. T cells were then harvested, washed in FACS buffer and mixed with diluted purified anti-B7-H1 antibodies or irrelevant human IgG2 or IgG4 antibodies at final concentration of 1 ug/ml in 96-well V-bottom assay plate (50 ul/well). […] Cells were incubated for 30 min at 4° C. before being washed again with FACS buffer and being read on a FACSCalibur instrument. Live lymphocyte population was selected for analysis based on forward and side scatter as well as negative staining for 7-AAD.
For orientation: A flow cytometer gives signals particle by particle.

Assay [4] concerns the target T1, mouse B7-H1 on J558 cells. The assay is described as follows: FACS, 5 µg/ml antibody, J558 cells expressing mouse B7-H1. The procedure: as §1
Assay [5] has as its target T3, human B7-H1 expressed on cells. The assay is described as follows: FMAT, hybridoma supernatant, 293T cells expressing human B7-H1. On the procedure: (§2) Immediately after plating, 10 μl/well of hybridoma supernatants were added and plates incubated for 1.5 hr at room temperature.
The target in assay [6] is T2, human B7-DC on 293T cells. The assay is described as follows: FACS, 5 µg/ml antibody, 293T cells transfected with human B7-DC. On the procedure:
as §1

In assay [7] the target is T3, human B7-H1 expressed on cells. The assay is described as follows: FACS, 5 µg/ml antibody, 293T cells transfected with human B7-H1. On the procedure: as §1
The target of assay [8] is T4, cynomolgus monkey B7-H1 expressed on cells (cynomolgus monkey, UniProt G7PSE7 19-290).
T4 construct: whole, on cells; also called cyno B7-H1; cynomologus B7-H1
In words: FACS, 1 µg/ml antibody, anti-CD3-activated cynomolgus monkey T cells. On the procedure:
For activation of cynomolgus monkey T cells 96-well high binding plates were incubated with 100 μl/well of goat anti-mouse IgG Fc antibody diluted at 1 ug/ml in PBS at 4 C overnight. […] Cynomolgus monkey PBMC were isolated from peripheral blood (Bioreclamation, catalog #CYNWBCPT). Anti-CD3 mAb coated plates were washed with PBS and isolated PBMC were added in 200 ul of ICM media at ˜200000 cells/well and cultured for 72 hours. Cells were then harvested, washed in FACS buffer and mixed with diluted purified anti-B7-H1 antibodies or irrelevant human IgG2 or IgG4 antibodies at a final concentration of 1 ug/ml in 96-well V-bottom assay plate (50 ul/well). […] Cells were incubated for 1 hour at 4° C. before being washed again with FACS buffer and being read on a FACSCalibur instrument. Monkey T lymphocyte population was selected for analysis based on forward and side scatter as well as positive staining for CD3 marker and negative staining for 7-AAD.

For assay [9], the target named is T4, cynomolgus monkey B7-H1 expressed on …. The assay is described as follows: FMAT, hybridoma supernatant, 293T cells expressing cynomolgus monkey B7-H1. The procedure:
as §2

Assay [10] addresses T3, human B7-H1 expressed on cells. In words: FACS competition: inhibition of biotinylated PD-1/Fc (10 ug/ml) binding to human B7-H1 on ES-2 cells. On the procedure: Briefly, 50000 cells/well were plated in 50 μl of PBS into wells of a 384-well tissue culture plate (Corning Costar, catalog #3712). Next, 50 μl/well of a diluted monoclonal antibody was added at final concentration of […], 0.00016 nM and plates were incubated at 4 C for 1 hour. […] Cells were washed once and 100 μl/well of Cy5-conjugated streptavidin was added and plates were incubated at 4 C for 15 min before being washed again with PBS containing 2% FCS and being read on a FACSCalibur instrument.

The target is the same in assay [11]. In words: cell ELISA: biotinylated PD-1/Fc (1.25 ug/ml) on CHO-huB7-H1 cells after hybridoma supernatant (1:5); 0% = 100% inhibition. The procedure:
25000 cells/well were plated in 50 μl of media into wells of a 384-well tissue culture plate (Corning Costar, catalog #3712). Next day, 50 μl/well of diluted (1:5) hybridoma supernatant was added and plates were incubated at 4 C for 1 hour on a shaker. […] Cells were washed and fixed in 100 ul of PBS containing 3.7% formaldehyde and 3% bovine serum albumin for 20 min at room temperature. Cells were washed and incubated in 100 ul of PBS containing 0.6% H2O2 and 3% bovine serum albumin for 10 min at room temperature. Cells were washed and incubated in 50 μl of horseradish peroxidase-conjugated streptavidin diluted at 1:4000 for 30 min at 4° C. Cells were washed before signal detection.
(ELISA stands for enzyme-linked immunosorbent assay.)

Positions count from the first letter of the chain named.

What is called IC50 is the concentration needed to halve the response being measured.

T4 sequence (G7PSE7 entry or part of it): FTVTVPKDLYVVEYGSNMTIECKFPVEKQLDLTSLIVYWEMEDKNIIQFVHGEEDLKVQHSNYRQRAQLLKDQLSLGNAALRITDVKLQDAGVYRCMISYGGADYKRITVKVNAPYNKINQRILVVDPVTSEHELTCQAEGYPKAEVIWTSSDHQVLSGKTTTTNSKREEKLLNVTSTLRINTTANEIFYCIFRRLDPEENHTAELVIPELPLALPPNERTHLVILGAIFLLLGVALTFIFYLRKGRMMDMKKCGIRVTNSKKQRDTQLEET
T3 sequence (Q9NZQ7 19-290): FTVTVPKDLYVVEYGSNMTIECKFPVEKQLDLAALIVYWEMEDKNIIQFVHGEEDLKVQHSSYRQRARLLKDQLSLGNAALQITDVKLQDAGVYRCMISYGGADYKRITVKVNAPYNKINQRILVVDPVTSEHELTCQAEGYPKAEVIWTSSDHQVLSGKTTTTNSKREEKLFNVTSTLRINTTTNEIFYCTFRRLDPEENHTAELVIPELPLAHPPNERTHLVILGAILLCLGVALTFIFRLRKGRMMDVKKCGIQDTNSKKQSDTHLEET
T1 sequence (Q9EP73 19-290): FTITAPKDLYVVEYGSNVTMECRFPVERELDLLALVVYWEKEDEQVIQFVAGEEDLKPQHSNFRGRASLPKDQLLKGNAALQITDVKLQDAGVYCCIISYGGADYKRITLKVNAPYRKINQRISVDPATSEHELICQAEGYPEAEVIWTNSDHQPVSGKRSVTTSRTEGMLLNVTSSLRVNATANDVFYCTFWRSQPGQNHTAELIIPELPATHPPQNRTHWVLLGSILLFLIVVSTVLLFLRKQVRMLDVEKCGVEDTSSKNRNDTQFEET

B1: 2.7A4 (antibody, IgG2, V domains shown)
VH: EVQLVESGGGLVKPGGSLRLSCAASGFTFSTYSMNWVRQAPGKGLEWVSSISSSGDYIYYADSVKGRFTISRDNAKNSLFLQMNSLKAEDTAVYYCARDLVTSMVAFDYWGQGTLVTVSS
VL: SYELTQPPSVSVSPGQAARITCSGDALPQKYVFWYQQKSGQAPVLVIYEDSKRPSGIPERFSGSSSGTMATLTISGAQVEDEADYYCYSTDRSGNHRVFGGGTRLTVL
notes: also called mAb 2.7A4
With B1, the binding result in [1] and in assay [2] was “no binding (tested: 5 µg/ml)” each time. Also, the geo mean is 49 in assay [3]; 3.2 in assay [4]; 10.5 in [6]; 754 in [7]; 104 in assay [8]. Moreover, the figures for the Count in assay [5] and in assay [9] were 37 and 59, respectively. The FL1 in assay [5] turned out to be 6980; in assay [9] it was 8700. For the same molecule, the “FL1 × count” value in [5] amounted to 258000; in assay [9] it was 513000. In addition, the IC50 in assay [10] was determined as 0.077 nM. Besides, the “PD1-Fc binding to CHO-huB7-H1 cells (% of max)” value (“PD1-Fc binding … (% of max)” below) in assay [11] was 0 % of max.

B2: 2.14H9 (antibody, IgG2, V domains shown)
VH: EVQLVESGGGLVQPGGSLRLSCAASGFTFSRYWMSWVRQAPGKGLEWVANIKQDGSEKYYVDSVKGRFTISRDNAKNSLYLQMNSLRAEDTAVYYCAREGGWFGELAFDYWGQGTLVTVSS
VL: EIVLTQSPGTLSLSPGERATLSCRASQRVSSSYLAWYQQKPGQAPRLLIYDASSRATGIPDRFSGSGSGTDFTLTISRLEPEDFAVYYCQQYGSLPWTFGQGTEVEIK
notes: also called mAb 2.14H9
On to B2, for which the binding result in assay [1] and in assay [2] was “no binding (tested: 5 µg/ml)” in each case. Moreover, the geo mean in assay [4] was determined as 3; in assay [6], 11.4; in assay [8] it was 106. The same molecule had a Count in [9] of 56. The molecule also had an FL1 in assay [9] of 6780. In addition, the “FL1 × count” value in assay [9] turned out to be 380000.

B3: 2.9D10 (antibody, V domains shown)
VH: EVQLVESGGGLVQPGGSLRLSCAASGFTFSSYWMSWVRQAPGKGLEWVANIKQDGGEQYYVDSVKGRFTISRDNAKNSLYLQMNSLRAEDTAVYYCARDWNYGYYDMDVWGQGTTVTVSS
VL: EIVLTQSPGTLSLSPGERATLSCRASQSVSSNYLAWFQQKPGQAPRLLIFGTSSRATGIPDRFSGSGSGTDFTLTISRLEPEDFAVYYCQQYGSSIFTFGPGTKVDIK
notes: Tested as hybridoma supernatant or purified antibody; also called mAb 2.9D10
B3: the binding result in [1] and in [2] was “no binding (tested: 5 µg/ml)” in each case. In addition, the geo mean in assay [3] is 49; in assay [4], 3.2; in [6], 8.7; in [7], 463; in [8], 107. Besides, the Count in assay [5] turned out to be 22; in assay [9], 54. Also, the FL1 turned out to be 7180 in assay [5] and 5530 in assay [9]. Also, the entries for the “FL1 × count” value in assay [5] and in assay [9] were 158000 and 298000, respectively. The molecule further had an IC50 in assay [10] of 0.109 nM. In addition, the “PD1-Fc binding … (% of max)” value in assay [11] is -5 % of max.

B4: 3.15G8 (antibody, IgG4, V domains shown)
VH: EVQLVESGGGLVQPGGSLRLSCAASGFTFSSYWMSWVRQAPGKGLEWVANIKQDGGEKYYVDSVKGRFTISRDNAKNSLFLQMNSLRAEDTAVYYCARVQLYSDYFDYWGQGTLVTVSS
VL: DIQMTQSPSSVSASVGDRVTITCRASQGISSWLAWYQQKSGKAPKLLIYAASGLQSGVPSRFSGSGSGTDFTLTISSLQPEDLATYYCQQSHSLPPTFGQGTKVEIK
notes: also called mAb 3.15G8
With B4, the binding result in assay [1] and in [2] was “no binding (tested: 5 µg/ml)” each time. In addition, the geo mean in assay [3] was determined as 48; in assay [4], 3.2; in [6] it was 10.1; in assay [7], 1180; in assay [8], 92.8. For the same molecule, the Count in assay [5] came out at 22; in [9] it was 64. The FL1 in assay [5] was determined as 8810; in [9], 8650. The “FL1 × count” value in assay [5] turned out to be 194000; in [9] it was 553000. The IC50 in [10] stood at 0.148 nM. Further, the “PD1-Fc binding … (% of max)” value in assay [11] was 4 % of max.

B5: 2.20A8 (antibody, IgG2, V domains shown)
VH: EVQLLESGGGLVQPGGSLRLSCAASGFTFSNYAMSWVRQAPGKGLEWVSAIRGSGGSTYYADSVKGRFTISRDNSKNTLYLQMNSLRAEDTAVYYCAKDLHYDSSGYLDYWGQGTLVTVSS
VL: B4 VL with S30R, S40P, A51I, G53R, L83F, S91A, H92N, L94F, P96L, Q100G
notes: also called mAb 2.20A8
Turning to B5, the binding result in assay [1] and in [2] was “no binding (tested: 5 µg/ml)” in each case. Further, the geo mean in [3] is 41; in assay [4], 3.3; in [6] it was 9.5; in assay [7], 463; in [8], 80.7. Besides, the Count in assay [5] is 34; in assay [9] it was 65. In addition, the FL1 was determined as 10300 in [5] and 7930 in assay [9]. Also, the “FL1 × count” value in assay [5] was 350000; in assay [9], 515000. Also, the IC50 in assay [10] came to 0.198 nM. Further, in [11], the “PD1-Fc binding … (% of max)” value is 0 % of max.

The values are drawn from patent publication US20130034559A1 (AstraZeneca / MedImmune, published 2013).
